Assay [1] addresses T1, ScDmc1 (Saccharomyces cerevisiae Dmc1, wild type) (Saccharomyces cerevisiae) (UniProt P25453).
T1 sequence: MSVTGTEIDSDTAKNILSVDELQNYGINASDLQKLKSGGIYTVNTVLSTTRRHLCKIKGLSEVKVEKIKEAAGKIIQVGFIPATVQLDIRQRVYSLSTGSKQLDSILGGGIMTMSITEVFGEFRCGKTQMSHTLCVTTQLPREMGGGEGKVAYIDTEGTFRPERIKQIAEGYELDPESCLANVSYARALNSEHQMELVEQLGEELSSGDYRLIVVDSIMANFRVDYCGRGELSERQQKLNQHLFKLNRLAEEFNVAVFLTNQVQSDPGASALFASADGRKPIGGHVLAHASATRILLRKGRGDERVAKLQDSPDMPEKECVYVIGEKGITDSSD

Assay [2] addresses T1, ScDmc1 (Saccharomyces cerevisiae Dmc1, wild type) (Saccharomyces cerevisiae). This is another data set of the same source.
The target is the same in assay [3]. The source holds these as a separate data set.
For assay [4] the target is unchanged. This is another data set of the same source.
For assay [5] the target is unchanged. This is another data set of the same source.
Assay [6] shares this target. This is another data set of the same source.

B1: ScMei5–Sae3 heterodimer (complex)
chain 1: MHNQEEWLDKDKTLVNEEENTCINHSYTKKDTNNYRVGKSGIKDLKKPTNQKEIAIKNRELTKQLTLLRQENNHLQQACKILSENKIIENRKSIEKWRTICEMELSFILNSTLIKINRMGGYKDFLEKEMEAKKRRLEYQIDNGMEDQICEIKESDDFRQLSEVEKQEWESQMNEQLKELEKKKIAELEKLNKVLHDSEGKDFGMAELCTRLKLDYSLIFPQ
chain 2: MNYLETQLNKKQKQIQEYESMNGNLIKMFEQLSKEKKNDETPKKISSTYIKELKEYNELRDAGLRLAQIIADEKQCKIKDVFEEIGYSMKD
The molecule B1 registered a D-loop yield with versus without 0.5 µM Mei5–Sae3 (3 µM Dmc1, 0.2 µM RPA, 70 µM Ca2+, 5 mM Mg2+, ATP) in assay [1] of 2.5 fold. Also, in assay [2], the apparent KD of Dmc1 for ssDNA by fluorescence polarisation, fold reduction by 400 nM Mei5–Sae3 (ADP in place of ATP) turned out to be 1.5 fold; the apparent KD of Dmc1 for ssDNA by fluorescence polarisation, fold reduction by 400 nM Mei5–Sae3 (AMP–PNP in place of ATP) amounted to 1.5 fold; the apparent KD of Dmc1 for ssDNA by fluorescence polarisation, fold reduction by 400 nM Mei5–Sae3 (ATP, 70 µM Ca2+, 100 mM NaCl) was determined as 2 fold. In assay [3], this molecule returned a negative-stain EM: average Dmc1 filament length with 2 µM Mei5–Sae3 against the control without it (ATP, 70 µM Ca2+, RPA) of 1.5 fold and a negative-stain EM: share of Dmc1 filaments in the extended (active) form with 2 µM Mei5–Sae3 (ATP, 70 µM Ca2+, RPA; 17% without Mei5–Sae3) of 76%. In addition, in assay [4], the negative-stain EM: average Dmc1 filament length with versus without Mei5–Sae3, ADP as cofactor (compressed filaments) came to 2.3 fold and the negative-stain EM: average Dmc1 filament length with versus without Mei5–Sae3, AMP–PNP as cofactor came to 1.5 fold. Also, the ssDNA-dependent ATP hydrolysis by Dmc1 (TLC), with versus without Mei5–Sae3, 70 µM Ca2+ in assay [5] was 2 fold. Moreover, the 3H-ADP retained on Dmc1 filaments (nitrocellulose filter) after adding 0.5, 1 or 2 µM Mei5–Sae3; value at 2 µM in assay [6] stood at 65%.

(Values after publication PMC12596195, “Mei5–Sae3 stabilizes both active and inactive forms of Dmc1 filaments independently of its impact on ATP hydrolysis” (Nucleic Acids Research, 2025).)
